Experimental data published in patent US20220118063A1.

Biological target: FVIII (B region deleted), purchased from American Pharma Wholesale (human) (UniProt P00451)
Test: cell-based or functional assay

UniProt P00451, sequence (P00451 other isoform, or with tags, fused parts or gaps, chain 1 of 2): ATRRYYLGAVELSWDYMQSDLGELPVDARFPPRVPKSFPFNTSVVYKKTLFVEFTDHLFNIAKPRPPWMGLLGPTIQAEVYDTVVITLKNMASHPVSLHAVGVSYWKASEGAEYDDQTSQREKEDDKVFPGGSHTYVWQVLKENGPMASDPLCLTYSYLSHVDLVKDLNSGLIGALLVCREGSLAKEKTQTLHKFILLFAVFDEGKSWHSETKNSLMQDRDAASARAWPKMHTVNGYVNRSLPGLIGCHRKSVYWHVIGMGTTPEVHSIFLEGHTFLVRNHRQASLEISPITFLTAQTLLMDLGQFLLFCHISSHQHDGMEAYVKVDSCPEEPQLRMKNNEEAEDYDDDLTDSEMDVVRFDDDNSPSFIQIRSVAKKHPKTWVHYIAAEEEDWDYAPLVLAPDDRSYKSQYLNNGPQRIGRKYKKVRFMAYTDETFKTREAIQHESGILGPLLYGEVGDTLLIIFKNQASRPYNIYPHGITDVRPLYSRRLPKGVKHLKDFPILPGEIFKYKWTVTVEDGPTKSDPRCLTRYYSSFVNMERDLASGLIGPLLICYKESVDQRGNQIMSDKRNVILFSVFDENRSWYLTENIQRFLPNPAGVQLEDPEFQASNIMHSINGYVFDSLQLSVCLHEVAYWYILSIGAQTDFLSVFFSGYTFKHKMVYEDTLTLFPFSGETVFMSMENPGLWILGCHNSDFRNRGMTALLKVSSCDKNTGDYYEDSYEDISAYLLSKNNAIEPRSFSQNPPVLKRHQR
UniProt P00451, sequence (P00451 1668-2351, stated change not applied, chain 2 of 2): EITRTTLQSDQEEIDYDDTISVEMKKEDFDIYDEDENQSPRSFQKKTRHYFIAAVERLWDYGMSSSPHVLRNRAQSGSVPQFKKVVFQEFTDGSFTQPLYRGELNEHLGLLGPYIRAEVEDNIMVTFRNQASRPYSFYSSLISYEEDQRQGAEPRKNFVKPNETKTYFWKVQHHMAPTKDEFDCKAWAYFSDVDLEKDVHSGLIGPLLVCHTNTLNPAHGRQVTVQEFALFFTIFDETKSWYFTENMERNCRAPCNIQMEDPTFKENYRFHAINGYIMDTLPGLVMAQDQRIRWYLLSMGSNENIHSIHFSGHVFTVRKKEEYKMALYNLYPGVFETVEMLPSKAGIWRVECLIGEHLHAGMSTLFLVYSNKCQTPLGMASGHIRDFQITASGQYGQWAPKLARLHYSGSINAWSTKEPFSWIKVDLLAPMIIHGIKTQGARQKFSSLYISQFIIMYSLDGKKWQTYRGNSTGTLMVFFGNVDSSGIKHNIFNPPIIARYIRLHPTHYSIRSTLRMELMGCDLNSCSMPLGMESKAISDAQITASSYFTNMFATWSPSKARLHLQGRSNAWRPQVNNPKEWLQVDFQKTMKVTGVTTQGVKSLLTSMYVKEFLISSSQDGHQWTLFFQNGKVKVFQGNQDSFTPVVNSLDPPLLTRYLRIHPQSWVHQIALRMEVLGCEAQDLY

CM110 (expressed from plasmid pCM110RMHM: D′D3 region of human von Willebrand Factor with cys1099 and cys1142 changed to alanine, 56 amino acid glycine serine rich linker, full length human albumin, no His tag) (from UniProt P04275 764-1247)
fold decrease in specific activity of CM211 in the APTT against the Coatest assay: 6.5 fold
